# Patent US20060140967A1 (US Dept. of Health and Human Services, published 2006)
# B1: TARP-2-9 (peptide)
# peptide: QMFPPSPL
# notes: The limits should be checked against the listing
# Target: T1, HLA-A2.1 molecules on TAP-deficient T2 cells (human)
# T1 construct: MHC class I molecule on T2 cells; also called HLA-A2 molecules
# Test: T2 binding assay, flow cytometry with anti-HLA-A2.1
# Method: (§1) T2-binding assay. […] After washing, cells were stained with FITC-labeled goat anti-mouse Ig (PharMingen, San Diego, Calif.) and the level of HLA-A2.1 expression was measured by flow cytometry. HLA-A2.1 expression was quantified as fluorescence index (FI) according to the formula: FI=(mean fluorescence intensity with peptide-mean fluorescence intensity without peptide)/mean fluorescence intensity without peptide.
# (§2) To determine HLA-A2.1 epitopes from the TARP, four different wild-type peptides were first predicted based on the anchor residues (FIG. 1B) and their binding affinities to HLA-A2.1 molecules were measured by the T2-binding assay.
row,Binder,binding result
1,FVALRNFSL [TARP-27-35 with substitution with Ala at position 3],no binding
2,B1,no binding
3,RLEHTFVFL [TARP-22-30],no binding

# Target: T1, HLA-A2.1 molecules on TAP-deficient T2 …
# Test: T2 binding assay, flow cytometry
# Method: as §1
row,Binder,binding result
1,FVFLRNFSV [TARP-27-35-9V],binds
2,FLFLRNFSL [TARP-27-35-2L],binds
3,FLRNFSLML (also called wild-type peptide) [TARP-29-37],binds
4,FLRNFSLMV [TARP-29-37-9V],binds
5,FLANFSLML [TARP-29-37-3A],binds

# Target: T1, HLA-A2.1 molecules on TAP-deficient T2 …
# Test: T2 binding assay, flow cytometry; reference TARP-29-37
# Method: as §1, §2
row,Binder,fold higher binding affinity than TARP-29-37 [fold]
1,FVFLRNFSL [TARP-27-35],~10
